{"source": "patent US20060024308A1", "key": {"human TNF-α (human) [1]": {"molecular_target": "human TNF-α (human) (UniProt P01375)", "sequence (P01375 77-233 limits assumed)": "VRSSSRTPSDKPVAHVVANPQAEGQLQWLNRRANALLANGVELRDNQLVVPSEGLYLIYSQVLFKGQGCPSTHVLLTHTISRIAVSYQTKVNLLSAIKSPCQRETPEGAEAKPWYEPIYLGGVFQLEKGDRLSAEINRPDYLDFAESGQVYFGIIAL", "test": "cell-based or functional assay"}, "human TNF-α (human) [2]": {"molecular_target": "human TNF-α (human) (UniProt P01375)"}}}
{"substance": "Humira (IgG1) (antibody)", "values": [{"measurement": "Average IC50, neutralization of TNF-α cytotoxicity on L929 cells", "setting": "human TNF-α (human) [1]", "value": 0.023, "unit": "nM"}, {"measurement": "ND50 (L929 cell survival, neutralisation of TNF-α cytotoxicity)", "setting": "human TNF-α (human) [2]", "value": 28, "unit": "pM"}]}
